Data on 1 substance can be found in article PMC3531375.

The target of this assay is MAP1B light chain 1, C-terminal myc-tag, expressed in COS7 cells (UniProt P15205).
UniProt P15205, sequence (P15205 2210-2459): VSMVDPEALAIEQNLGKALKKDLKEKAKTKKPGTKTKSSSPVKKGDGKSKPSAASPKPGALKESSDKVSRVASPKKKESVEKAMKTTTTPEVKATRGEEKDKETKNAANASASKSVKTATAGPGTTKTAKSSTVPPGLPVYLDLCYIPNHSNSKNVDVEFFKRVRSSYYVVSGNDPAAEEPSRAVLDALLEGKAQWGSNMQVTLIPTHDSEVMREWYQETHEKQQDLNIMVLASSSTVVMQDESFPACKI

“N-terminal truncated Tiam1 (C1199), C-terminal HA-tag (domain or fragment)”: the Rac1-GTP pulled down by GST-PAK1 CRIB domain from lysates of COS7 cells co-expressing Tiam1 (C1199 HA) and myc-tagged LC1, relative to total Rac1 was determined as 2 fold.
